This is an account of results in patent US20220048947A1.

The target in assay [1] is NbALFA^ST (NbALFA clone 1G5). As to the kind of experiment: peptide elution from NbALFA^ST resin; tag position M.
The target in assay [2] is NbALFA^ST (NbALFA clone 1G5). As to the kind of experiment: peptide elution from NbALFA^ST resin; tag position N.

Where no end group is shown, it is not given here. Bounds are passed on as bounds.

NbALFA^ST (NbALFA clone 1G5), sequence (VHH, as listed by the source): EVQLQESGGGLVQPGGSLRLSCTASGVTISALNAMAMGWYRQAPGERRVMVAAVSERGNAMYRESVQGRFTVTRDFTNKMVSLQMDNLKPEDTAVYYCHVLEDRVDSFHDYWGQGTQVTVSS

Molecule DSGRLEQEIRRELSPG [ds…g (SEQ ID NO: 103)] displayed a t1/2 in assay [1] of less than 2 min.
On to MPSAVEEELRRRLSPS (not fully specified (residues 2, 16); printed as MpSAVEEELRRRLSPs) [Mp…s (SEQ ID NO: 112)], for which the t1/2 in assay [2] is less than 2 min.
Turning to DSGALEQEIRRRLSPG [ds…g (SEQ ID NO: 100)], the t1/2 in assay [1] is less than 2 min.
In assay [1], DSGRLEQEIRRALSPG [ds…g (SEQ ID NO: 101)] registered a t1/2 of less than 2 min.
In assay [1], DSPGLEQELRRRLPTA [ds…a (SEQ ID NO: 106)] yielded a t1/2 of less than 2 min.
Turning to SDSGLEEEARRRLSPG [sd…g (SEQ ID NO: 97)], the t1/2 in assay [1] was less than 2 min.
Turning to MSAVEEELRRRLSPS (not fully specified (residue 15); printed as MSAVEEELRRRLSPs) […s (SEQ ID NO: 109)], in assay [2], the t1/2 is less than 2 min.
Consider DSGALEEELRRRLSPG [ds…g (SEQ ID NO: 99)], for which the t1/2 in assay [1] is less than 2 min.
With DSGRLEEELRSPG [dsGRLEEELR---SPg (SEQ ID NO: 96)], the t1/2 in assay [1] was less than 2 min.
Same read-out and setting: the value for PDSGLEQELRRRLPTA [pd…a (SEQ ID NO: 104)] was less than 2 min; that for DSGRLEEELRRSPG [ds…--SPg (SEQ ID NO: 95)] was less than 2 min.
Take DSGRLEQEIRRQLSPG [ds…g (SEQ ID NO: 102)]: the t1/2 in assay [1] is less than 2 min.
The molecule SDSGEELRRRLSPG [sdSG--…g (SEQ ID NO: 93)] came in with a t1/2 in assay [1] of less than 2 min.
DPSGLEQELRRRLPTA [dp…a (SEQ ID NO: 105)] showed a t1/2 in assay [1] of less than 2 min.
MSSAVEEELRRRLSPS (not fully specified (residues 2, 16); printed as MsSAVEEELRRRLSPs) [Ms…s (SEQ ID NO: 113)] returned a t1/2 in assay [2] of less than 2 min.
Regarding DSGPLEQELRRRLPTA [ds…a (SEQ ID NO: 107)], the t1/2 in assay [1] was less than 2 min.
In turn, MSAVEEELRRRLSPS (not fully specified (residue 15); printed as MSAVEEELRRRLSPs) […s (SEQ ID NO: 111)] showed a t1/2 in assay [2] of less than 2 min.
Regarding SDSGEEELRRRLSPG [sdSG-…g (SEQ ID NO: 92)], the t1/2 in assay [1] was less than 2 min.
In assay [1], DSGRLEEELRRRSPG [ds…-SPg (SEQ ID NO: 94)] gave a t1/2 of less than 2 min.
In assay [1], SDSGAEEELRRRLSPG [sd…g (SEQ ID NO: 98)] came in with a t1/2 of less than 2 min.
